Data as given in publication PMC6352652, “Targeting early changes in the synovial microenvironment: a new class of immunomodulatory therapy?” (Annals of the Rheumatic Diseases, 2018).

Tests used:
[1] = target: T1, fibrinogen-like globe (FBG) domain of human tenascin-C (human, UniProt P24821); experiment: SPR; at 37°C; C3 on human and rat FBG; who was immobilised not stated
T1 construct: tenascin-C, human, fibrinogen-like globe (FBG) domain at the C-terminus; contact residues are numbered A2115 to H2175; the constructs used for SPR, the crystal and the solid phase assay may differ; also called human FBG; recombinant human tenascin-C FBG; source: recombinant
T1 sequence (P24821 1975-2201): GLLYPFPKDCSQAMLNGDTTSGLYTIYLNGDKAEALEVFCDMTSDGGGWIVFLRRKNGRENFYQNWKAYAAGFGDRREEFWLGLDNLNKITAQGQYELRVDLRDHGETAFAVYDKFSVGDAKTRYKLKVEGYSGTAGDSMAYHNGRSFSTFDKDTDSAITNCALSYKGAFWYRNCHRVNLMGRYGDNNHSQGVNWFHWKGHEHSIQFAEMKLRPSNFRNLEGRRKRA

[2] = target: T2, FBG domain of rat tenascin-C (Rattus norvegicus, UniProt A0A8I6AG89); experiment: as above
T2 construct: tenascin-C, rat, fibrinogen-like globe (FBG) domain; Printed only as 'rat antigen'; construct in the supplementary methods; also called rat antigen

[3] = target: T1, fibrinogen-like globe (FBG) domain of …; experiment: ELISA; solid phase binding assay: recombinant human TLR4 coated onto a 96-well plate; recombinant human FBG preincubated with C3 or isotype control antibody was added; bound FBG detected; conditions: both partners purified

B1: monoclonal antibody C3 (antibody, V domains shown)
VH: QVQLVESGGGLVQPGRSLRLSCAASGFTFDDYAMHWVRQAPGKGLEWVSGISGSGGSTYYADSVKGRFTISRDNAKNSLYLQMNSLRAEDTALYYCAKSYQSDEDAFDIWGQGTMVTVSS
VL: DIQMTQSPASLPTPVGDRVTITCRASQYIQGFLNWYQQKPGKAPKLLIYDASNLETGVPSRFSGSGSGTDFTLTISSLQPEDFATYYCQQSYSTPQTFGQGTKVDIK
notes: variable part as the heavy chain of m2 (crystal structure solved here, Fab chain B); as the light chain of m2 (crystal structure solved here, Fab chain C); in the solid phase and cell assays it is compared with an isotype control antibody; also called clone C3
[1]
  Kd: 0.07 nM
[2]
  Kd: 1.2 nM
[3]
  IC50: 45.6 nM
